How the values were obtained:
[1] = biological target: DAEFRH-peptide-specific monoclonal antibody (Example 1); assay: inhibition ELISA, competitor plate-bound DAEFRH-C-BSA
[2] = biological target: monoclonal antibody MV-001; assay: ELISA on peptide-BSA; code 2 = medium binding, OD halfmax 1:4000-20000
[3] = biological target: monoclonal antibody MV-001; assay: inhibition ELISA, competitor coated original epitope p4371; code 1 = weaker than original epitope
[4] = biological target: monoclonal antibody MV-001; assay: ELISA on peptide-BSA; code 3 = strong binding, OD halfmax 1:>20000

Binder | IC50 [1] [µg/mL] | OD halfmax 1:X (dilution factor of the parental antibody at half-maximal OD) (dilutionfactor(1:x)) [2] | OD at 10 ug peptide relative to OD of original peptide (inhibition ELISA) [3] [fold] | OD halfmax 1:X (dilution factor of the parental antibody at half-maximal OD) (dilutionfactor(1:x)) [4]
GKEFRT [Peptide 4035] | < 0.5 | – | – | –
TSFRHGC [p4382] | – | 4000 to 20000 | 2 to 3 | –
DKELRC [Peptide 1238] | < 0.5 | – | – | –
DWEFRDAC [Peptide 1241] | < 0.5 | – | – | –
QDFRHYC [p4380] | – | 4000 to 20000 | 2 to 3 | –
SWEFRTC [Peptide 4002] | < 0.4 | – | – | –
EYEFRGC [Peptide 1239] | > 0.5 | – | – | –
SQFRHYC [p4385] | – | 4000 to 20000 | 2 to 3 | –
DRELRIC [Peptide 1235] | < 0.5 | – | – | –
DAELRY [Peptide 4031] | < 0.5 | – | – | –
LMFRHNC [p4386] | – | – | 2 to 3 | > 20000
SWELRQA [Peptide 4020] | > 0.5 | – | – | –
SQEFRTP [Peptide 4023] | < 0.5 | – | – | –
SLEFRF [Peptide 4033] | < 0.5 | – | – | –
SVEFRYH [Peptide 4021] | < 0.5 | – | – | –
DRELKIC [Peptide 1237] | > 5 | – | – | –
AYEFRH [Peptide 4036] | > 0.5 | – | – | –
SEFKHGC [p4381] | – | – | 2 to 3 | > 20000
DKELKIC [Peptide 1236] | > 5 | – | – | –
SSEFRVS [Peptide 4024] | < 0.5 | – | – | –
TSVFRHC [p4383] | – | – | 2 to 3 | > 20000
TPFRHTC [p4384] | – | 4000 to 20000 | 2 to 3 | –
SFEFRGC [Peptide 3009] | < 5 | – | – | –
DWEFRD [Peptide 4025] | < 0.5 | – | – | –
DWELRQ [Peptide 4032] | < 0.5 | – | – | –
SYEFRHH [Peptide 4022] | < 0.5 | – | – | –
GPEFRW [Peptide 4034] | < 0.5 | – | – | –

The next lines start with the values.

IC50 [1] [µg/mL] | OD halfmax 1:X (dilution factor of the parental antibody at half-maximal OD) (dilutionfactor(1:x)) [2] | OD at 10 ug peptide relative to OD of original peptide (inhibition ELISA) [3] [fold] | OD halfmax 1:X (dilution factor of the parental antibody at half-maximal OD) (dilutionfactor(1:x)) [4] | Binder
– | 4000 to 20000 | 2 to 3 | – | QFKHDLC [p4391]
– | 4000 to 20000 | 2 to 3 | – | SHFRHGC [p4389]
– | – | 2 to 3 | > 20000 | ILFRHGC [p4390]
– | 4000 to 20000 | 2 to 3 | – | EEFKYSC [p4393]
– | 4000 to 20000 | 2 to 3 | – | SAFRHHC [p4387]
– | – | 2 to 3 | > 20000 | EELRHSVC [p4746]
– | – | 2 to 3 | > 20000 | ADHDFRHC [p4740]
– | – | 2 to 3 | > 20000 | QSEFKHWC [p4738]
– | – | 2 to 3 | > 20000 | SPNQFRHC [p4707]
– | – | 2 to 3 | > 20000 | THTDFRHC [p4725]
– | – | 2 to 3 | > 20000 | DGLLFKHC [p4741]
– | 4000 to 20000 | 2 to 3 | – | LPFRHGC [p4388]
– | – | 2 to 3 | > 20000 | SEFKHC [p4801]
– | – | 2 to 3 | > 20000 | DEHPFRHC [p4730]

Source: patent US20130287807A1, “COMPOUNDS FOR TREATING SYMPTOMS ASSOCIATED WITH PARKINSON'S DISEASE” (priority 2008, published 2013)
